Results from US20220177575A1 (MAGENTA THERAPEUTICS, published 2022).

Target: T1, Human CD117 antigen (human, UniProt P10721 26-520)
T1 construct: also called c-kit; Stem Cell Factor Receptor
Assay: chemical cross-linking, High-Mass MALDI MS and nLC-Orbitrap MS of the complex

T1 sequence (P10721 other isoform, or with tags, fused parts or gaps limits assumed): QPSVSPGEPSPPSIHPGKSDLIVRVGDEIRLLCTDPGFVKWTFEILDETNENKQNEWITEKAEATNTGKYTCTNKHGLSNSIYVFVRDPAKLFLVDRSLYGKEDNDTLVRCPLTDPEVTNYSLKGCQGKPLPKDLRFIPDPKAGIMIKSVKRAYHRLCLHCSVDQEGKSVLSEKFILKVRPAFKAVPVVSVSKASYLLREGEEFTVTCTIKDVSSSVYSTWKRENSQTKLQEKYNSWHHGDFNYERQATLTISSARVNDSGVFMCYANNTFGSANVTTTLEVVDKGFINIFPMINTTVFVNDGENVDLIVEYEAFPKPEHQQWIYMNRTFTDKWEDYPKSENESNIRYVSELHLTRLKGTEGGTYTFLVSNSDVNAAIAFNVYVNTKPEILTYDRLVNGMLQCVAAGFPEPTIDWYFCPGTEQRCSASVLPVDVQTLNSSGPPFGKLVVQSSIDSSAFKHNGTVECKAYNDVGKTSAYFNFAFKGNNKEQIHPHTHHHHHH

B1: anti-CD117 antibody 85 (Ab85) (antibody, V domains shown)
VH: EVQLVQSGAEVKKPGESLKISCKGSGYSFTNYWIGWVRQMPGKGLEWMAIINPRDSDTRYRPSFQGQVTISADKSISTAYLQWSSLKASDTAMYYCARHGRGYEGYEGAFDIWGQGTLVTVSS
VL: DIQMTQSPSSLSASVGDRVTITCRSSQGIRSDLGWYQQKPGKAPKLLIYDASNLETGVPSRFSGSGSGTDFTLTISSLQPEDFATYYCQQANGFPLTFGGGTKVEIK
notes: Human antibody derived from CK6; also called Antibody HC-85/LC-85
B1: binds.
